Ends that are not written are not given here.
Experiments:
[1] = target: T1, A1PI (Homo sapiens, UniProt P01009); assay: A1PI binding on peptide-resin column, injection of 1 mg A1PI in equilibration buffer; conditions: for % of Total A1PI Eluted by Fraction (Based on Absorbance at 280 nm), 1M NaCl / % of Total A1PI Eluted by Fraction (Based on Absorbance at 280 nm), 2% Acetic Acid / % of Total A1PI Eluted by Fraction (Based on Absorbance at 280 nm), Flowthrough: Trp position mutations, 1 mg A1PI
T1 construct: Human plasma is currently the only approved source of therapeutic AlPI
Outline: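 Peptides synthesized on A-Totda-Toyopearl chelate resin (0.1 mmole/g) packed in 0.4×5 cm columns; 1 mg A1PI injected in equilibration buffer at 4 °C or 20 °C, 865 or 523 μl/min. Flowthrough, 1M/3M NaCl washes and 2% acetic acid eluate quantified by A280 or immunonephelometry as percent of total eluted.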

[2] = target: T1, A1PI; assay: A1PI purification from 5 mg hSA + 1 mg A1PI on peptide column, A1PI mass balance; assay type: binding; conditions: for Mass AlPI Eluted in Acid Eluate: nephelometry
Method: Confirmatory binding assays were performed in a column chromatographic format on a microbore HPLC using individual peptide sequences synthesized directly onto the Toyopearl 650 M Chelate resin which had been modified with Totda followed by an alanine residue (A-Totda-Toyopearl), at a final substitution density of 0.1 mmole/g resin. The resin was packed into 0.4×5 cm columns (Thomson, Springfield, Va.) and tested on the Michrom HPLC system (Michrom BioResources, Auburn, Calif.). The elution program for all trials utilized the following method. The column was pre-equilibrated with equilibration buffer (as above). 1 ml of sample was injected and allowed sufficient time to flowthrough the column using equilibration buffer. The column was then washed with step elutions of 1M NaCl and 3M NaCl in equilibration buffer. The column was exposed to equilibration buffer with 0.1M NaCl. Any remaining protein was eluted with elution buffer (2% by volume glacial acetic acid in water).
A Gilson FC204 fraction collector at the HPLC outlet collected individual eluates for further analysis. Fractions collected from the 2% acetic acid eluates were neutralized with 2M Tris, pH 10.5 to bring the pH to neutrality. The protein samples were reconstituted in equilibration buffer unless otherwise stated. The samples were analyzed by the integration of the absorbance at 280 nm or by immunonephelometry. The specific method of determination is presented for each figure.
Columns were assayed with a mixture of 5 mg human serum albumin (hSA)+1 mg AlPI at 4° C. (Table 4, Seq. ID 1-11, 15, 17) and 20° C. (Table 5, Seq. ID 1-10, 13, 15, 17). The chromatography method was modified to provide for a 10 minute residence time of sample in the column by decreasing the flow to 17 μl/min (10 cm/hr) upon injection. Following the incubation, the flow was set at 865 μl/min (413 cm/hr) for the step elutions of 1M NaCl, 3M NaCl, and 2% acetic acid. The mass balances presented are based upon immunonephelometry. The Percent Eluted value is protein-specific and based on the amount of the protein eluted in a […]

[3] = target: T2, apolipoprotein alpha-1 (Apo A-1) (Homo sapiens, UniProt P02647); assay: Purification from Effluent II+III, Apo A-1 mass balance; assay type: binding; conditions: 1 ml Eff. II+III, 4° C.
T2 construct: Eff; II+III is a process intermediate in the Cohn plasma fractionation process; tissue Bayer Corporation (Clayton, N.C.); host or cells: plasma fraction: Cohn Effluent II+III
Method: (§1) Sequences 1-11 and 15 were assayed with Effluent II+III (Eff. II+III). Eff. II+III is a process intermediate in the Cohn plasma fractionation process. The feed stream contains 20% (by volume) ethanol, 20-25 mg/ml hSA and approximately 1 mg/ml AlPI. The stream also contains other proteins including anti-thrombin III (AT3), immunoglobin G (IgG), immunoglobin A (IgA), apolipoprotein alpha-1 (Apo A-1), transferrin (Trf), haptoglobin (Hpt), and alpha-1 acid glycoprotein (AAG) at concentrations ranging from 0.1-1 mg/ml.
(§2) The columns were assayed using the same technique as the hSA+AlPI experiments, allowing for a 10 minute residence time followed by a constant flow rate of 865 μl/min with step elutions of 1M NaCl, 3M NaCl, and 2% acetic acid. All experiments were conducted at 4° C. The mass balances for the injection of 1 ml Eff. […] The AlPI was enriched from 3% of the total protein in the feed to upwards of 50% in the acid eluate.

[4] = target: T1, A1PI; assay: Purification of A1PI from Effluent II+III on peptide column, A1PI mass balance; assay type: binding; conditions: 1 ml Eff. II+III, 4° C.
Method: as §1, §2

[5] = tested on: Immunoglobulin A (IgA); assay: Purification from Effluent II+III, IgA mass balance; assay type: binding, human; conditions: 1 ml Eff. II+III, 4° C.
Method: as §1, §2

[6] = tested on: Immunoglobulin G (IgG); assay: Purification from Effluent II+III, IgG mass balance; assay type: binding, human; conditions: 1 ml Eff. II+III, 4° C.
Method: as §1, §2

[7] = target: T1, A1PI; assay: A1PI yield from dialyzed (aqueous) Effluent II+III; assay type: binding; conditions: 4° C.
Method: Effluent II+III was dialyzed against equilibration buffer at 4° C. to remove the ethanol using a 15,000 molecular weight cut-off membrane. Nephelometry of the Eff. […] A portion of the identified sequences were assayed under the same conditions applied for neat Eff. II+III at 4° C. […] II+III compared to the neat, ethanol-containing feed. The binding strength differed for the aqueous feed as more AlPI eluted in 1M NaCl for the aqueous feed. The AlPI eluted in the 1M NaCl fractions was not as enriched as that eluted in the acid eluates.

[8] = 1 mg A1PI in equilibration buffer, 4° C.
[9] = 1 mg A1PI in equilibration buffer, 20° C.
[10] = A1PI, 5 mg hSA + 1 mg A1PI, 4° C., * Below detection limit
[11] = A1PI, 5 mg hSA + 1 mg A1PI, 4° C., relative to total eluted
[12] = A1PI, 5 mg hSA + 1 mg A1PI, 20° C., * Below detection limit
[13] = A1PI, 5 mg hSA + 1 mg A1PI, 20° C., relative to total eluted
[14] = * as in Tables 4, 5 (below detection limit)
[15] = A1PI, * as in Tables 4, 5 (below detection limit)
[16] = Table 10, A1PI, 5 mg hSA + 1 mg A1PI, 4° C., * Below detection limit
[17] = Table 10, A1PI, 5 mg hSA + 1 mg A1PI, 4° C., relative to total loaded
[18] = Table 10, A1PI, 5 mg hSA + 1 mg A1PI, 20° C., * Below detection limit
[19] = Table 10, A1PI, 5 mg hSA + 1 mg A1PI, 20° C., relative to total loaded
[20] = Table 11, * Below detection limit
[21] = 1 ml dialyzed Eff. II+III (ethanol removed)
[22] = A1PI, 1 ml dialyzed Eff. II+III

T1 sequence (P01009 25-418): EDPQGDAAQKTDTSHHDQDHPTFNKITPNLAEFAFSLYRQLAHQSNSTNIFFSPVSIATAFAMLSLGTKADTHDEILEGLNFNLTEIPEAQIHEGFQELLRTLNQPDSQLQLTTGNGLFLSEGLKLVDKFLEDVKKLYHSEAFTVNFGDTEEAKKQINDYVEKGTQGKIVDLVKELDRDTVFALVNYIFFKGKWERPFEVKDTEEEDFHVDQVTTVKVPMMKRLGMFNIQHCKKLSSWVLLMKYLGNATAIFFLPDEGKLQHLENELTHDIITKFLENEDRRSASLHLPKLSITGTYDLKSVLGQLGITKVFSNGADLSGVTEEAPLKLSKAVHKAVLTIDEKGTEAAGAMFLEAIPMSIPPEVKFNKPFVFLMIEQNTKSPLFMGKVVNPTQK
T2 sequence (P02647 19-267): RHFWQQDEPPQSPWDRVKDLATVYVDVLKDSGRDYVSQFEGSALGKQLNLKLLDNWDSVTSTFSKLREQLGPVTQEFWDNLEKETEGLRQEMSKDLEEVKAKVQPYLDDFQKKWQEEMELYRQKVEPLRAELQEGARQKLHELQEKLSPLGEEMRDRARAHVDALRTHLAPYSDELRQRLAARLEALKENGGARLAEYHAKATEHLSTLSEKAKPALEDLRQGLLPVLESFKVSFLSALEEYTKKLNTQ

RLWRYG
Percent A1PI Eluted by Fraction Based on Absorbance at 280 nm, 1M NaCl [1, 8]: 88% | Percent A1PI Eluted by Fraction Based on Absorbance at 280 nm, 2% Acetic Acid [1, 8]: 12% | Percent A1PI Eluted by Fraction Based on Absorbance at 280 nm, Flowthrough [1, 8]: 0% | Percent A1PI Eluted by Fraction, 1M NaCl [1, 9]: 88% | Percent A1PI Eluted by Fraction, 2% Acetic Acid [1, 9]: 12% | Percent A1PI Eluted by Fraction, Flowthrough [1, 9]: 0% | Mass AlPI Eluted in Acid Eluate ([2]; 250 μg AlPI injected with 5 mg hSA, 20° C.): 0.07 mg | Mass AlPI Eluted in Acid Eluate ([2]; 500 μg AlPI injected with 5 mg hSA, 20° C.): 0.15 mg | Mass AlPI Eluted in Acid Eluate ([2]; 1000 μg AlPI injected with 5 mg hSA, 20° C.): 0.39 mg | Mass Protein per Eluate Fraction, 1M NaCl [2, 10]: 0.50 mg | Mass Protein per Eluate Fraction, 2% Ac. Acid [2, 10]: 0.11 mg | Mass Protein per Eluate Fraction, Flow [2, 10]: 0.01 mg | Percent Eluted by Fraction, 1M NaCl [2, 11]: 80% | Percent Eluted by Fraction, 2% Ac. Acid [2, 11]: 18% | Percent Eluted by Fraction, 3M NaCl [2, 11]: 0% | Percent Eluted by Fraction, Flow [2, 11]: 2% | Mass Protein per Eluate Fraction, 1M NaCl [2, 12]: 0.42 mg | Mass Protein per Eluate Fraction, 2% Ac. Acid [2, 12]: 0.45 mg | Mass Protein per Eluate Fraction, 3M NaCl [2, 12]: 0.00 mg | Percent Eluted by Fraction, 1M NaCl [2, 13]: 48% | Percent Eluted by Fraction, 2% Ac. Acid [2, 13]: 52% | Percent Eluted by Fraction, 3M NaCl [2, 13]: 0% | Percent Eluted by Fraction, Flow [2, 13]: 0% | Percent Eluted by Fraction, 1M NaCl [3]: 0% | Percent Eluted by Fraction, 2% Acetic Acid [3]: 100% | Percent Eluted by Fraction, 3M NaCl [3]: 0% | Percent Eluted by Fraction, Flow [3]: 0% | Mass Protein per Eluate Fraction, 2% Acetic Acid [3, 14]: 0.35 mg | Percent Eluted by Fraction, 1M NaCl ([4]; A1PI): 22% | Percent Eluted by Fraction, 2% Acetic Acid ([4]; A1PI): 14% | Percent Eluted by Fraction, 3M NaCl ([4]; A1PI): 0% | Percent Eluted by Fraction, Flow ([4]; A1PI): 64% | Mass Protein per Eluate Fraction, 1M NaCl [4, 15]: 0.20 mg | Mass Protein per Eluate Fraction, 2% Acetic Acid [4, 15]: 0.13 mg | Mass Protein per Eluate Fraction, Flow [4, 15]: 0.59 mg | Percent Eluted by Fraction, 1M NaCl [5]: 0% | Percent Eluted by Fraction, 2% Acetic Acid [5]: 31% | Percent Eluted by Fraction, 3M NaCl [5]: 0% | Percent Eluted by Fraction, Flow [5]: 69% | Mass Protein per Eluate Fraction, 2% Acetic Acid [5, 14]: 0.09 mg | Mass Protein per Eluate Fraction, Flow [5, 14]: 0.19 mg | Percent Eluted by Fraction, 1M NaCl [6]: 0% | Percent Eluted by Fraction, 2% Acetic Acid [6]: 0% | Percent Eluted by Fraction, 3M NaCl [6]: 0% | Percent Eluted by Fraction, Flow [6]: 100% | Mass Protein per Eluate Fraction, Flow [6, 14]: 0.27 mg

VIYLVR: VIWLVR with Trp at position 3 replaced by Tyr
% of Total A1PI Eluted by Fraction (Based on Absorbance at 280 nm), 1M NaCl ([1]; 4° C.): 28% | % of Total A1PI Eluted by Fraction (Based on Absorbance at 280 nm), 2% Acetic Acid ([1]; 4° C.): 72% | % of Total A1PI Eluted by Fraction (Based on Absorbance at 280 nm), Flowthrough ([1]; 4° C.): 0% | % of Total A1PI Eluted by Fraction (Based on Absorbance at 280 nm), 1M NaCl ([1]; 20° C.): 15% | % of Total A1PI Eluted by Fraction (Based on Absorbance at 280 nm), 2% Acetic Acid ([1]; 20° C.): 85% | % of Total A1PI Eluted by Fraction (Based on Absorbance at 280 nm), Flowthrough ([1]; 20° C.): 0% | Mass Protein per Eluate Fraction, 1M NaCl [2, 16]: 0.12 mg | Mass Protein per Eluate Fraction, 2% Acetic Acid [2, 16]: 0.75 mg | Mass Protein per Eluate Fraction, Flow [2, 16]: 0.12 mg | Percent Eluted by Fraction, 1M NaCl [2, 17]: 12% | Percent Eluted by Fraction, 2% Acetic Acid [2, 17]: 76% | Percent Eluted by Fraction, 3M NaCl [2, 17]: 0% | Percent Eluted by Fraction, Flow [2, 17]: 12% | Mass Protein per Eluate Fraction, 1M NaCl [2, 18]: 0.07 mg | Mass Protein per Eluate Fraction, 2% Acetic Acid [2, 18]: 0.48 mg | Mass Protein per Eluate Fraction, Flow [2, 18]: 0.13 mg | Percent Eluted by Fraction, 1M NaCl [2, 19]: 11% | Percent Eluted by Fraction, 2% Acetic Acid [2, 19]: 70% | Percent Eluted by Fraction, 3M NaCl [2, 19]: 0% | Percent Eluted by Fraction, Flow [2, 19]: 19% | Mass A1PI per Eluate Fraction, 1M NaCl [4, 20]: 0.05 mg | Mass A1PI per Eluate Fraction, 2% Acetic Acid [4, 20]: 0.57 mg | Mass A1PI per Eluate Fraction, Flowthrough [4, 20]: 0.22 mg | Percent Eluted by Fraction, 1M NaCl ([4]; Table 11, A1PI): 6% | Percent Eluted by Fraction, 2% Acetic Acid ([4]; Table 11, A1PI): 68% | Percent Eluted by Fraction, Flowthrough ([4]; Table 11, A1PI): 27% | Mass A1PI per Eluate Fraction, 1M NaCl [7, 21]: 0.12 mg | Mass A1PI per Eluate Fraction, 2% Acetic Acid [7, 21]: 0.16 mg | Mass A1PI per Eluate Fraction, Flowthrough [7, 21]: 0.46 mg | Percent Eluted by Fraction, 1M NaCl [7, 22]: 16% | Percent Eluted by Fraction, 2% Acetic Acid [7, 22]: 22% | Percent Eluted by Fraction, Flowthrough [7, 22]: 62%

Source: patent publication US5985836A, “Alpha-1 proteinase inhibitor binding peptides” (Bayer Corporation, priority 1998, dated 1999)
